Target: N-terminal 6X-His-Tagged Caspar (Drosophila)
Assay: SEC

N-terminal 6X-His-Tagged Caspar (natural protein)
stoichiometry N: 2

— article doi:10.1101/2021.04.07.438776
